Data as given in patent US20220204611A1 (Amgen, published 2022).

T1: human TREM2 (human, UniProt Q9NZC2 19-174, limits assumed)
T1 sequence: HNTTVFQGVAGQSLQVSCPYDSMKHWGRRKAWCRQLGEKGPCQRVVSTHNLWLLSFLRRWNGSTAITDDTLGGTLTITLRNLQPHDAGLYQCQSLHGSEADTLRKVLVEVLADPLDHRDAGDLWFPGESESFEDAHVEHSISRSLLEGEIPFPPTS


Legend:
[1] = biological target: T1, human TREM2; assay: yeast-displayed Fab FACS, 1st screen 10 nM
[2] = biological target: T1, human TREM2; assay: yeast-displayed Fab FACS, 2nd screen 2 nM
[3] = biological target: T1, human TREM2; assay: yeast-displayed Fab FACS, 2nd screen 10 nM

Row | Binder | binding signal fold over 6E7 parental [1] | binding signal fold over 6E7 parental [2] | binding signal fold over 6E7 parental [3]
1 | V3 (Fab, V domains shown) VH: EVQLVQSGAEVKKPGESLKISCKGSGYSFASYWIAWVRQMPGKGLEWMGIIYPGDSDTRYSPSFQDQVTISADKSISTAYLQWSSLKASDTAMYFCARGRTFYYDSSDYFDYWGQGTLVTVSS VL: DIQMTQSPSSVSASVGDRVTITCRASQGISSWLAWYQQKPGKAPKLLIYAASSRQNGVPSRFSGSGSGTDFTLTISSLQPEDFATYFCQQADRFPRTFGQGTKLEIK | 1.97 fold | 1.95 fold | 2.24 fold
2 | V14 (Fab, V domains shown) VH: EVQLVQSGAEVKKPGESLKISCKGSGYSFGSYWIAWVRQMPGKGLEWMGIIYPGDQDTRYSPSFQGQVTISADKSISTAYLQWSSLKASDTAMYFCARGRTFYYDSSDYFDYWGQGTLVTVSS VL: DIQMTQSPSSVSASVGDRVTITCRASQGISSWLAWYQQKPGKAPKLLIYAASRLQNGVPSRFSGSGSGTDFTLTISSLQPEDFATYFCQQADSFPRTFGQGTKLEIK | 4.71 fold | 2.57 fold | 4.64 fold
3 | V40 (Fab, V domains shown) VH: EVQLVQSGAEVKKPGESLKISCKGSGYSFGSYWIAWVRQMPGKGLEWMGIIYPGDSDVRYSPSFQGQVTISADKSISTAYLQWSSLKASDTAMYFCARQRTFYYDSSDYSDYWGQGTLVTVSS VL: DIQMTQSPSSVSASVGDRVTITCRASQGISSWLAWYQQKPGKAPKLLIYAASSLQLGVPSRFSGSGSGTDFTLTISSLQPEDFATYFCQQADRFPRTFGQGTKLEIK | 4.48 fold | 3.41 fold | 4.16 fold
4 | V16 (Fab, V domains shown) VH: EVQLVQSGAEVKKPGESLKISCKGSGYSMTSYWIAWVRQMPGKGLEWMGIIYPGDGDTRYSPSFQGQVTISADKSISTAYLQWSSLKASDTAMYFCARSRTFYYDSSDYFDYWGQGTLVTVSS VL: DIQMTQSPSSVSASVGDRVTITCRASQGISSWLAWYQQKPGKAPKLLIYAASNLQNGVPSRFSGSGSGTDFTLTISSLQPEDFATYFCQQADSFPRTFGQGTKLEIK | 4.01 fold | 3.57 fold | 4.04 fold
5 | V24 (Fab, V domains shown) VH: EVQLVQSGAEVKKPGESLKISCKGSGYSFTSYWIAWVRQMPGKGLEWMGIIYPGDSDVRYSPSFQGQVTISADKSISTAYLQWSSLKASDTAMYFCARSRTFYYDSSDYFDYWGQGTLVTVSS VL: DIQMTQSPSSVSASVGDRVTITCRASQGISSWLAWYQQKPGKAPKLLIYAASSLQKGVPSRFSGSGSGTDFTLTISSLQPEDFATYFCQQADSFPHTFGQGTKLEIK | 2.64 fold | 1.42 fold | 2.9 fold
6 | V25 (Fab, V domains shown) VH: EVQLVQSGAEVKKPGESLKISCKGSGYSFGSYWIAWVRQMPGKGLEWMGLIYPGDSDTRYSPSFQGQVTISADKSISTAYLQWSSLKASDTAMYFCARSRTFYYDSSDYFDYWGQGTLVTVSS VL: DIQMTQSPSSVSASVGDRVTITCRASQGISSWLAWYQQKPGKAPKLLIYAASSLANGVPSRFSGSGSGTDFTLTISSLQPEDFATYFCQQADSMPRTFGQGTKLEIK | 4.23 fold | 3.15 fold | 4.7 fold
7 | V13 (Fab, V domains shown) VH: EVQLVQSGAEVKKPGESLKISCKGSGYSFGSYWIAWVRQMPGKGLEWMGIIYPGDSDTRYSASFQGQVTISADKSISTAYLQWSSLKASDTAMYFCARGRTFYYDSSDYFDYWGQGTLVTVSS VL: DIQMTQSPSSVSASVGDRVTITCRASQGISSWLAWYQQKPGKAPKLLIYAASSLQGGVPSRFSGSGSGTDFTLTISSLQPEDFATYFCQQADSMPRTFGQGTKLEIK | 1.31 fold | 1.15 fold | 1.35 fold
8 | V37 (Fab, V domains shown) VH: EVQLVQSGAEVKKPGESLKISCKGSGYSHTSYWIAWVRQMPGKGLEWMGIIYPGDSDTRYSPSFAGQVTISADKSISTAYLQWSSLKASDTAMYFCARSRTFYYDSSDYFDYWGQGTLVTVSS VL: DIQMTQSPSSVSASVGDRVTITCRASQGISSWLAWYQQKPGKAPKLLIYAASSLQWGVPSRFSGSGSGTDFTLTISSLQPEDFATYFCQQADSYPRTFGQGTKLEIK | 3.46 fold | 3.69 fold | 3.49 fold
9 | V36 (Fab, V domains shown) VH: EVQLVQSGAEVKKPGESLKISCKGSGYSFTSYWLAWVRQMPGKGLEWMGIIYPGDSDTRYSPSFQGQVTISADKSISTAYLQWSSLKASDTAMYFCARSRTFYYDSSDYFDYWGQGTLVTVSS VL: DIQMTQSPSSVSASVGDRVTITCRASQGISSWLAWYQQKPGKAPKLLIYAASSRQNGVPSRFSGSGSGTDFTLTISSLQPEDFATYFCQQADSYPRTFGQGTKLEIK | 3.38 fold | 4 fold | 3.44 fold
10 | V29 (Fab, V domains shown) VH: EVQLVQSGAEVKKPGESLKISCKGSGYSFKSYWIAWVRQMPGKGLEWMGIIYPGDSDTRYSPSFQGQVTISADKSISTAYLQWSSLKASDTAMYFCARQRTFYYDSSDYFDYWGQGTLVTVSS VL: DIQMTQSPSSVSASVGDRVTITCRASQGISSWLAWYQQKPGKAPKLLIYAASSLQNGVPSRFSGSGSGTDFTLTISSLQPEDFATYFCQQADSFPRTFGQGTKLEIK | 1.53 fold | 0.84 fold | 1.67 fold
11 | V27 (Fab, V domains shown) VH: EVQLVQSGAEVKKPGESLKISCKGSGYSFTSYWIAWVRQMPGKGLEWMGIIYPGDSDTRYAPSFQGQVTISADKSISTAYLQWSSLKASDTAMYFCVRSRTFYYDSSDYFDYWGQGTLVTVSS VL: DIQMTQSPSSVSASVGDRVTITCRASQGISSWLAWYQQKPGKAPKLLIYAASSLQRGVPSRFSGSGSGTDFTLTISSLQPEDFATYFCQQADSFPRTFGQGTKLEIK | 5.5 fold | 5.67 fold | 5.69 fold
12 | V5 (Fab, V domains shown) VH: EVQLVQSGAEVKKPGESLKISCKGSGYSFTSYWIAWVRQMPGKGLEWMGTIYPGDSDTRYSPSFQGQVTISADKSISTAYLQWSSLKASDTAMYFCARQRTFYYDSSDYFDYWGQGTLVTVSS VL: DIQMTQSPSSVSASVGDRVTITCRASQGISSWLAWYQQKPGKAPKLLIYAASSLQNGVPSRFSGSGSGTDFTLTISSLQPEDFATYFCQQADSHPRTFGQGTKLEIK | 2.73 fold | 1.25 fold | 2.84 fold
13 | V26 (Fab, V domains shown) VH: EVQLVQSGAEVKKPGESLKISCKGSGYSFTSYWIGWVRQMPGKGLEWMGTIYPGDSDTRYSPSFQGQVTISADKSISTAYLQWSSLKASDTAMYFCARQRTMYYDSSDYFDAWGQGTLVTVSS VL: DIQMTQSPSSVSASVGDRVTITCRASQGISSWLAWYQQKPGKAPKLLIYAASSLQRGVPSRFSGSGSGTDFTLTISSLQPEDFATYFCQQADSYPRTFGQGTKLEIK | 3.57 fold | 2.83 fold | 3.47 fold
14 | V4 (Fab, V domains shown) VH: EVQLVQSGAEVKKPGESLKISCKGSGYSFGSYWIAWVRQMPGKGLEWMGIIYPGDSDTRVSPSFQGQVTISADKSISTAYLQWSSLKASDTAMYFCARSRTFYYDSSDYFDYWGQGTLVTVSS VL: DIQMTQSPSSVSASVGDRVTITCRASQGISSWLAWYQQKPGKAPKLLIYAASRLQNGVPSRFSGSGSGTDFTLTISSLQPEDFATYFCQQADSYPRTFGQGTKLEIK | 6 fold | 5.88 fold | 5.51 fold
15 | V15 (Fab, V domains shown) VH: EVQLVQSGAEVKKPGESLKISCKGSGYSFASYWIAWVRQMPGKGLEWMGTIYPGDSDTRYSPSFQGQVTISADKSISTAYLQWSSLKASDTAMYFCARSRTFYYDSSDYFDYWGQGTLVTVSS VL: DIQMTQSPSSVSASVGDRVTITCRASQGISSWLAWYQQKPGKAPKLLIYAASWLQNGVPSRFSGSGSGTDFTLTISSLQPEDFATYFCQQADSYPRTFGQGTKLEIK | 5.23 fold | 4.72 fold | 4.78 fold
16 | V17 (Fab, V domains shown) VH: EVQLVQSGAEVKKPGESLKISCKGSGYSFGSYWIAWVRQMPGKGLEWMGIIYPGDSDTRYSPSFQGQVTISADKSISTAYLQWSSLKASDTAMYFCARSRTFYYDSSDYFDYWGQGTLVTVSS VL: DIQMTQSPSSVSASVGDRVTITCRASQGISSWLAWYQQKPGKAPKLLIYAASSRQNGVPSRFSGSGSGTDFTLTISSLQPEDFATYFCQQADSSPRTFGQGTKLEIK | 5.37 fold | 4.22 fold | 5.51 fold
